System: peptide library, one residue held at a place counted from the S/T acceptor
Assay: relative phosphorylation of the sub-library (ratio to the mean residue at this position); higher = residue favoured
How it was run: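 Human or orthologue kinase constructs, purified and recombinant, were incubated under kinase-specific conditions in 384-well plates with biotinylated degenerate peptide sub-libraries. Each sub-library fixed one residue at one position around a central Ser/Thr. Incubations lasted 90 min with peptides at 50 μM and 50 μM ATP spiked with γ-32P-ATP, after which spots on streptavidin membranes were phosphorimaged and quantified by densitometry. Relative sub-library phosphorylation is a ratio to the mean residue at that position.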

Chain of STK38L, construct: Full length, human (Q9Y2H1 whole entry, looked up): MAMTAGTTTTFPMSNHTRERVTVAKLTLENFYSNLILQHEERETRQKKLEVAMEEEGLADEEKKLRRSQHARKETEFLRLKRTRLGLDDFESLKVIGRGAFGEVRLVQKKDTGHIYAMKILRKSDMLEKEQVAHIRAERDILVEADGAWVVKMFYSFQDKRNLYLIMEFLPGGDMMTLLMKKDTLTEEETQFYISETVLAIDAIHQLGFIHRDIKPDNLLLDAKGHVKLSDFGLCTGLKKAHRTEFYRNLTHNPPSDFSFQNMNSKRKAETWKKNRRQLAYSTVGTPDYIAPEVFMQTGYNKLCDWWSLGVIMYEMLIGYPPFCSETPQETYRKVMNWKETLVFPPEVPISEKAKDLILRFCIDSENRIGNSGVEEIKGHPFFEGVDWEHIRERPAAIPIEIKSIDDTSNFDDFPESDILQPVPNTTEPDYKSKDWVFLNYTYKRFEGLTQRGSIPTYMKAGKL
Chain of CLK1, construct: aa128-end, human (P49759 128-484, looked up): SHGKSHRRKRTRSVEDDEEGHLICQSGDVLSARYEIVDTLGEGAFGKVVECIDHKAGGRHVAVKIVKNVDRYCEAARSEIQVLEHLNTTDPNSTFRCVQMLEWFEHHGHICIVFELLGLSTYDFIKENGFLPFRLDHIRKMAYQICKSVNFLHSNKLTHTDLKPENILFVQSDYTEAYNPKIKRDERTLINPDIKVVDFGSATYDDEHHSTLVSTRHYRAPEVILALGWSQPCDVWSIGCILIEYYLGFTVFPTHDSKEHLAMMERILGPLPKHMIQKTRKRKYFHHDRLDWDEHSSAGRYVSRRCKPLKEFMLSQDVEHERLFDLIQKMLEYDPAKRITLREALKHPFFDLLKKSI

STK38L, construct: Full length, human (from UniProt Q9Y2H1)
relative phosphorylation
Settings	at +1	at +2	at +3	at +4	at -1	at -2	at -3	at -4	at -5
A fixed	0.661	1.19	0.645	0.811	0.671	0.847	0.656	1.03	0.951
D fixed	1.16	2.27	1.07	1.33	0.872	0.675	0.648	0.889	0.79
E fixed	1.1	0.721	0.987	1.21	0.636	0.712	0.554	0.812	0.582
F fixed	0.851	0.661	1.04	1.1	0.477	0.747	0.435	0.654	0.538
G fixed	1.38	2.25	1.6	1.15	1.68	1.2	0.833	1.39	0.971
H fixed	0.83	2.05	1.22	1.11	0.979	1.6	1.18	1.26	4.33
I fixed	0.832	0.568	0.826	0.711	0.238	0.265	0.23	0.403	0.345
K fixed	0.847	0.396	0.865	0.812	1.9	2.07	2.1	1.55	1.65
L fixed	0.804	0.421	0.788	0.856	0.619	0.315	0.243	0.481	0.433
M fixed	1.48	0.406	0.843	1.01	0.768	0.487	0.399	0.849	0.508
N fixed	1.61	1.09	1.22	1.24	1.43	1.53	1.03	0.989	0.792
P fixed	0.532	0.81	1.27	1.24	2.64	1.45	1.94	1.89	0.701
Q fixed	1.36	1.1	0.932	1.15	1.37	1.18	0.827	0.982	0.629
R fixed	0.577	0.391	0.59	0.588	1	1.9	4.36	1.63	1.7
V fixed	0.919	0.854	0.668	0.686	0.372	0.358	0.324	0.423	0.457
W fixed	1.09	0.958	1.39	0.955	0.545	1.01	0.598	0.942	0.884
Y fixed	0.961	0.856	1.04	1.05	0.799	0.64	0.657	0.829	0.741
pThr fixed	1.29	0.941	0.91	1.61	0.457	0.842	0.692	0.698	0.46
pTyr fixed	1.26	1.04	0.87	1.05	0.76	0.814	0.914	0.895	0.672

MAP2K1, construct: Full length, human (from UniProt Q02750)
relative phosphorylation
Settings	at +1	at +2	at +3	at +4	at -1	at -2	at -3	at -4	at -5
A fixed	0.7	0.969	0.94	0.939	1.03	0.942	1.02	0.999	1.03
D fixed	1.55	0.835	1.02	1	0.876	0.955	1.02	1.13	1.08
E fixed	0.866	0.696	0.898	0.911	0.722	0.931	1	1.2	0.95
F fixed	1.18	0.746	0.992	0.92	0.933	1.72	1.04	1.04	1.81
G fixed	0.753	0.712	1.11	1.07	1.35	0.808	0.725	0.902	0.816
H fixed	0.877	3.48	1.29	0.998	1.02	2.03	1.07	1.11	0.992
I fixed	1.56	0.839	0.852	0.976	0.77	0.695	0.998	0.961	0.94
K fixed	0.629	0.84	0.923	0.885	1.07	0.768	1.09	0.861	0.925
L fixed	1.18	0.718	0.947	1.05	1.32	0.787	1.02	0.891	0.943
M fixed	1.42	0.924	0.909	0.949	1.14	1.02	1.02	1.06	0.909
N fixed	0.738	0.738	0.854	0.83	0.959	0.994	0.781	0.974	0.882
P fixed	0.71	0.775	0.969	1.04	0.768	0.615	0.707	0.806	0.935
Q fixed	0.743	0.79	0.854	0.916	0.967	0.834	0.92	0.896	0.886
R fixed	0.616	0.85	0.916	0.875	1.05	0.955	1.36	0.922	0.907
V fixed	1.21	0.913	0.861	0.895	0.848	0.67	0.94	1.06	0.978
W fixed	1.13	0.87	1.37	1.5	1.02	1.13	1.22	1.11	1.01
Y fixed	1.13	1.31	1.29	1.25	1.17	1.14	1.06	1.09	1.01
pThr fixed	1.45	1.08	0.988	1.02	0.87	0.824	1.7	1.14	0.922
pTyr fixed	1.11	0.882	1.11	0.958	0.875	0.763	0.869	1.04	0.873

CLK1, construct: aa128-end, human (from UniProt P49759)
relative phosphorylation
Settings	at +1	at +2	at +3	at +4	at -1	at -2	at -3	at -4	at -5
A fixed	0.598	1.12	0.654	0.682	0.844	2.56	0.707	0.901	0.836
D fixed	0.144	0.577	0.507	0.907	0.327	0.602	0.306	0.506	0.591
E fixed	0.488	0.614	0.409	0.937	0.393	1.54	0.309	0.636	0.666
F fixed	0.442	0.909	0.713	1.01	0.669	0.339	0.317	0.87	1.86
G fixed	0.498	0.93	0.782	0.916	0.988	1.17	0.427	0.877	0.877
H fixed	0.56	1.23	1.01	0.915	0.822	0.482	0.634	1.02	0.956
I fixed	1.22	0.828	0.552	0.678	0.538	0.257	0.383	1.03	0.9
K fixed	0.704	1.53	3.14	1.47	2.35	0.993	2.66	1.8	1.49
L fixed	0.897	0.926	0.665	0.884	1.01	0.467	0.381	1.01	0.943
M fixed	0.839	0.985	0.633	0.907	0.999	0.427	0.394	0.866	0.891
N fixed	0.345	0.832	0.842	0.959	0.717	0.605	0.407	0.776	0.746
P fixed	5.99	1.18	1.84	0.92	0.993	0.588	0.368	0.725	0.839
Q fixed	0.739	0.875	0.854	1.19	1.02	0.936	0.598	0.871	0.742
R fixed	0.697	1.94	2.42	1.76	2.84	5.04	8.11	2.33	1.82
V fixed	1.95	1.08	0.627	0.722	0.667	0.345	0.325	0.92	0.809
W fixed	0.388	0.695	0.687	1.24	0.961	0.343	0.328	0.963	0.971
Y fixed	0.505	0.757	0.673	0.913	0.862	0.314	0.344	0.89	1.06
pThr fixed	0.711	1.62	0.67	1.58	0.273	0.444	0.355	0.642	0.501
pTyr fixed	0.383	0.451	0.856	0.874	0.523	0.283	0.321	0.748	0.76

From the supplement of paper PMC9876800
